Consider 2 substances from US12686704B2, “Procoagulant peptides and use thereof” (RAMBAM MED-TECH LTD., priority 2021, dated 2026).

Where no end group is shown, it is not given here.

In assay [1] the target is lipidated TF, factor VIIa, factor X (Homo sapiens, UniProt P13726). Description: Factor X activation assay of purified proteins (chromogenic substrate). It counts as biochemical. Conditions: peptides at 5 μg/ml and 10 μg/ml; compared to control; FIG. 1A. The method, then: FIGS. 1A-1C include vertical bar graphs and thromboelastography (TEG) curves, showing that peptide 16 and peptide 16AC increase coagulation. Peptide 16 and 16AC were studied in an assay of purified proteins that included lipidated TF (4 nM), factor VIIa (40 nM), factor X (1.4 μM) and assay buffer. Factor X activated form (Xa) level was studied using a chromogenic substrate (1 mM). […] Bovine factor Xa diluted in the assay buffer was used to generate a standard curve. Without addition of TF (two right columns), no factor Xa was generated. […] (1B) A citrated pooled normal human blood sample (n=3) was left for 4 hours at room temperature in order to expose TF in bloods cells. Following this period, the peptides 16 and 16AC were added (5 μg/ml) along with calcium. […] Representative TEG curves are shown. (1C) The study presented in FIG. 1B was repeated 3 times with different pooled plasma. […] Peptide 16 (non-modified); peptide 16 comprising a C-terminal amid group (16A); peptide 16 comprising an N-terminal acetyl group (16C); and peptide 16 comprising a C-terminal amid group and an N-terminal acetyl group (16AC). In 1B: for control—SP min=11.2; R min=12.8; K min=3.8, Angle deg=52.0; and MA mm=47.9, for Peptide 16—SP min=5.2; R min=6.4; K min=2.8, Angle deg=63.3; and MA mm=50.4, and for Peptide 16AC—SP min=4.7; R min=5.6; K min=2.5, Angle deg=63.1; and MA mm=53.8.
Peptides 16, 16C, 16A and 16AC were studied in an assay of purified proteins that included lipidated TF (0.004 μM), factor VIIa (0.04 μM), factor X (1.4 μM) and assay buffer. Factor X activated form (Xa) level was studied using a chromogenic substrate (1 mM). […] Bovine factor Xa diluted in the assay buffer was used to generate a standard curve. Without addition of TF (two right columns), no factor Xa was generated.

The test system of assay [2] is Hemophilic mice (VIII-KO mice). Description: Mouse-tail bleeding time model in hemophilic mice. It counts as in vivo. The note with it: subcutaneous 150-375 μg/kg; FIG. 3D. The method, then:
FIGS. 3A-3D include vertical bar graphs showing that modified heparanase procoagulant peptides of the invention decrease bleeding in hemophilic mice. Hemophilic mice (VIII-KO mice; C57BL/6 background, strain name B6;129S4-F8tm1Kaz/J) were studied. (3A) Peptides 16 or 16AC were injected subcutaneously at the flank in doses 150, 225, 300, 375 μg/kg. A mouse-tail bleeding time model was performed. The peptides were dissolved in phosphate-buffered saline (PBS). Control (0) group was injected with the vehicle phosphate buffered saline (PBS). (3D) is identical to (3A) with the exception that peptide 16 C […] and peptide 16A […] were also administered in the disclosed doses. In a similar study, the peptides were topically applied on the tail immediately following the incision of the tail at a rate of a drop every 5 seconds (3B). […] Mann-Whitney U test was used. Results represent mean±SD. *p<0.05.
Hemophilic mice (VIII-KO mice; C57BL/6 background, strain name B6;129S4-F8tm1Kaz/J) were studied. Peptides 16 or 16AC were injected sub-cutis at the flank in doses 150, 225, 300, 375 μg/kg. A mouse-tail bleeding time model was performed. The peptides were dissolved in phosphate-buffered saline (PBS). Control (0) group was injected with the vehicle phosphate buffered saline (PBS) (FIGS. 3A and 3D). In a similar study, the peptides were topically applied on the tail immediately following the incision of the tail at a rate of a drop every 5 seconds (FIG. 3B).

lipidated TF, factor VIIa, factor X, sequence (P13726 33-295): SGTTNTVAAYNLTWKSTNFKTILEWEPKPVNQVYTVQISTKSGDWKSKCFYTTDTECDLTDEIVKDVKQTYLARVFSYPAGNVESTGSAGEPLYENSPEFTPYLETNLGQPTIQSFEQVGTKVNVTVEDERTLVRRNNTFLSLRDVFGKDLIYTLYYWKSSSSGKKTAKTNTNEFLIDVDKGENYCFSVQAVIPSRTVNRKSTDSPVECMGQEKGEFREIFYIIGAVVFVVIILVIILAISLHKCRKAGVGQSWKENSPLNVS
lipidated TF, factor VIIa, factor X, sequence (P08709 61-212 partner limits assumed): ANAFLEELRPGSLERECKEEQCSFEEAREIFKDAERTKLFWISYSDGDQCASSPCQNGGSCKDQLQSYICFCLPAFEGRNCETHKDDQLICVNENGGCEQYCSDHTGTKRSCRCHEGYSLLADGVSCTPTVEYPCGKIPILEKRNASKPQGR
lipidated TF, factor VIIa, factor X, sequence (P08709 213-466 partner limits assumed): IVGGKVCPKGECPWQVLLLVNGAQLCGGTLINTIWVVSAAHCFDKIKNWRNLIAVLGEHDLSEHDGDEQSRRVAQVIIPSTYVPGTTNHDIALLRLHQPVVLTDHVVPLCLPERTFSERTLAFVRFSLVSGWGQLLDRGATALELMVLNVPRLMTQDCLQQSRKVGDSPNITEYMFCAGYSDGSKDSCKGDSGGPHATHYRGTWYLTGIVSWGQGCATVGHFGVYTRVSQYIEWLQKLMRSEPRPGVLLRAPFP

“GSKRRKLRVYLHCT-amid (GSKRRKLRVYLHCT-NH2) [Peptide 16A, peptide 16 comprising a C-terminal amid group]”: the “activation of factor X (factor Xa level)” value in assay [1] was “significantly increased activation of factor X compared to control”. The “bleeding time reduction, comparison between peptides” value in assay [2] is “significant better effect to reduce the bleeding time compared to peptide 16 and peptide 16C”. As to “acetyl-GSKRRKLRVYLHCT (Ac-GSKRRKLRVYLHCT) [Peptide 16C, peptide 16 comprising an N-terminal acetyl group]”, in assay [1], the “activation of factor X (factor Xa level)” value is reported as “significantly increased activation of factor X compared to control”.
